In patent US8209131B2, “Therapeutic heparins and their binding to interleukins 4 and 5 and PECAM-1” (Curtin University of Technology, priority 2004, dated 2012):
Positions count from the first letter of the chain named. Numbers in names are those of the source.

B1: βc: IL-3, IL-5 and GM-CSF common receptor β extracellular domain fused to flag tag (protein, UniProt P32927 17-443, looked up)
extracellular domain: WERSLAGAEETIPLQTLRCYNDYTSHITCRWADTQDAQRLVNVTLIRRVNEDLLEPVSCDLSDDMPWSACPHPRCVPRRCVIPCQSFVVTDVDYFSFQPDRPLGTRLTVTLTQHVQPPEPRDLQISTDQDHFLLTWSVALGSPQSHWLSPGDLEFEVVYKRLQDSWEDAAILLSNTSQATLGPEHLMPSSTYVARVRTRLAPGSRLSGRPSKWSPEVCWDSQPGDEAQPQNLECFFDGAAVLSCSWEVRKEVASSVSFGLFYKPSPDAGEEECSPVLREGLGSLHTRHHCQIPVPDPATHGQYIVSVQPRRAEKHIKSSVNIQMAPPSLNVTKDGDSYSLRWETMKMRYEHIDHTFEIQYRKDTATWKDSKTETLQNAHSMALPALEPSTRYWARVRVRTSRTGYNGIWSEWSEARSWDTESVLPMW
modifications: extracellular domain Flag tag
notes: IL-3, IL-5 and GM-CSF common receptor β extracellular domain fused to flag tag
B2: R85A: IL-4 mutant, baculovirus expressed (protein)
chain: HKCDITLQEIIKTLNSLTEQKTLCTELTVTDIFAASKNTTEKETFCRAATVLRQFYSHHEKDTRCLGATAQQFHRHKQLIRFLKALDRNLWGLAGLNSCPVKEANQSTLENFLERLKTIMREKYSKCSS
B3: R53A: IL-4 mutant, baculovirus expressed (protein)
chain: B2 chain with R53A, A85R
B4: K77A/R81A: IL-4 double mutant (protein)
chain: B2 chain with K77A, R81A, A85R
B5: K84A: IL-4 mutant, baculovirus expressed (protein)
chain: B2 chain with K84A, A85R
B6: E60A: IL-4 mutant, baculovirus expressed (protein)
chain: B2 chain with E60A, A85R
B7: K77A/K84A: IL-4 double mutant (protein)
chain: B2 chain with K77A, K84A, A85R
B8: K77A/R85A: IL-4 double mutant (protein, UniProt P05112 25-153, looked up, variant K77A R85A)
Interleukin-4: B2 chain with K77A
B9: K77A/K12A: IL-4 double mutant (protein, UniProt P05112 25-153, looked up, variant K77A K12A)
Interleukin-4: B2 chain with K12A, K77A, A85R
B10: R75A: IL-4 mutant, baculovirus expressed (protein)
chain: B2 chain with R75A, A85R
B11: K77A: IL-4 mutant, baculovirus expressed (protein)
chain: B2 chain with K77A, A85R
B12: K42A: IL-4 mutant, baculovirus expressed (protein)
chain: B2 chain with K42A, A85R
B13: K77A/R88V: IL-4 double mutant (protein, UniProt P05112 25-153, looked up, variant K77A R88V)
Interleukin-4: B2 chain with K77A, A85R, R88V
B14: R121A: IL-4 mutant, baculovirus expressed (protein)
chain: B2 chain with A85R, R121A
B15: D87A: IL-4 mutant, baculovirus expressed (protein, UniProt P05112 25-153, looked up, variant D87A)
Interleukin-4: B2 chain with A85R, D87A
B16: K12A: IL-4 mutant, baculovirus expressed (protein)
chain: B2 chain with K12A, A85R
B17: H74A: IL-4 mutant, baculovirus expressed (protein, UniProt P05112 25-153, looked up, variant H74A)
Interleukin-4: B2 chain with H74A, A85R
B18: E9A: IL-4 mutant, baculovirus expressed (protein)
chain: B2 chain with E9A, A85R
B19: R81A: IL-4 mutant, baculovirus expressed (protein)
chain: B2 chain with R81A, A85R
B20: K77A/R53A: IL-4 double mutant (protein)
chain: B2 chain with R53A, K77A, A85R

How the values were obtained:
[1] = BIAcore binding of proteins to heparin immobilised on a biosensor chip; details: for ka / kd / Kd: IL-4 WT and mutants binding to heparin; for ka: in M-1s-1 (unit assumed); for kd: in s-1 (unit assumed); for Kd: read-out: KD
Source text: This technology uses the optical phenomenon of surface plasmon resonance to monitor physical interactions between molecules. Passing the protein solution over a sensor surface to which the ligand is coupled monitors the real-time binding of proteins to an immobilized ligand. Detection is achieved by measuring refractive index changes very close to the sensor surface. When the refractive index is altered, the angle at which plasmon resonance occurs changes and this change directly correlates with the amount of protein interacting with the surface. A BIAcore 2000 is conveniently used. It is very sensitive and its microfluidics ensures that only small amounts of material are required.
The HLGAGs are immobilized on the biosensor chip. Intact HLGAGs are biotinylated via amino groups, or reducing termini modified with ammonia by reductive amination, using sulfo-NHS-biotin. Biotinylated HLGAGs are immobilized on streptavidin-coupled sensor chips. Solutions containing proteins of interest are injected over the sensor chip surface, and the binding is measured in real time (Fernig, In: Proteoglycan protocols, Ed. R.V. Iozzo, Humana Press, Totowa, N.J., USA, 2001). […] In all cases binding is specific, as there is little or no interaction with sensor chips lacking heparin with any of the targeted proteins, and binding is inhibited by exogenous heparin. Initial analyzes indicate that the binding of rhIL-5 to heparin has affinity constants of the order from 50-5×10^−9. Because unsubstituted amines are variably present in heparan sulfates from different tissues, an alternative method of biotin labeling is recommended for the heparan sulfate chip. In this case, heparan sulfate is labeled via oxidized cis-diol residues using biotinyl-LC-hydrazine. […]
Binding experiments with these proteins has indicated to which PECAM-1 domains heparin binds. Two binding assays were used: the assay where PECAM-1 is reacted with a BIAcore biosensor chip to which heparin has been immobilised and the second assay is the binding of PECAM-1 to heparan sulfate on the cell surface.
Site directed mutagenesis was performed on IL-4. Basic residues within the proposed heparin binding site were changed to alanine and the proteins expressed using the baculovirus expression system. The one exception was R88 which was changed to valine. Insect cell expressed proteins were purified on an anti-IL-4 affinity column and checked for purity by SDS-PAGE and silver staining. Mutant IL-4 proteins were examined for their ability to bind heparin immobilised on a biosensor chip and binding assessed using a BIAcore 2000.

TF1.8 cells = test: TF1.8 bioassay of IL-4 mutants (support of proliferation); assay type: cell-based, human; details: for Conc needed for 50% growth, average: IL-4 wt and mutants, TF1.8 cells; for proliferative activity of IL-4 mutants: compared with WT
Protocol: TF-1.8 cells have been transfected with the firefly luciferase gene contained in the expression vector, pPGK-puromycin-luciferase (Coombe et al., 1998, Supra). The positive transfectants are cloned to produce a line with good luciferase expression. The proliferation assays are carried out in 96-well microplates suitable for such assays Falcon). The wells are flat bottomed, with white sides and a clear bottom. Cells are washed to remove any cytokine in the growth medium and then resuspended in RPMI/5% w/v FCS. The cells are counted with a Coulter Multisizer (Coulter Electronics, England) and routinely 2.5×10^4 cells are added to microplate wells that contain either no IL-4 (negative control) or various dilutions of IL-4. When the effect of HLGAGs, chondroitin sulfate C, or the heparin fractions of a particular length, or heparin fragments of a particular length and structure is to be measured, the wells also contain various concentrations of these molecules.
The cells proliferate for 48 hours at 37° C. in a humidified atmosphere, after which the luciferase activity is measured by the addition of 50 μl of luciferase substrate buffer (50 mm Tris-HCl, pH 7.8, 15 mM MgSO4, 33.3 mM DTT, 0.1 mM EDTA, 0.5 mM Na-luciferin, 0.5 mM ATP, 0.25 mM lithium Co A and 0.5% v/v Triton X-100). Immediately after the addition of the luciferase buffer the plate is assayed for luciferase activity. Light emissions are detected on a Victor 1420 Multilabel counter (Wallac, Turku, Finland).
IL-4 mutants were compared with WT for their ability to support the proliferation of TF1.8 cells. Titration curves were performed for each of the mutants and the concentration needed to support 50% of cell growth was determined.

Molecule	binding to immobilized heparin ([1]; recombinant proteins, FIG. 2)	heparin binding of IL-4 mutant relative to wild type [1]	ka [1]	kd [1]	Kd [1]	Conc needed for 50% growth, average (TF1.8 cells)	proliferative activity of IL-4 mutants (TF1.8 cells)
B1	binds to heparin	–	–	–	–	–	–
B2	–	stronger binding than the wild type	1.04E+05	2.42E−03	23.4 nM	0.71 ng/mL	–
B3	–	–	5.83E+04	5.40E−03	92.5 nM	9.39 ng/mL	slightly decreased proliferative activity
B4	–	–	9.82E+03	1.55E−03	158 nM	1.65 ng/mL	–
B5	–	–	3.06E+04	2.57E−03	83.9 nM	2.95 ng/mL	slightly decreased proliferative activity
B6	–	–	8.44E+04	2.76E−03	32.7 nM	–	–
B7	–	–	1.26E+04	2.23E−03	176 nM	1.69 ng/mL	–
B8	–	–	1.51E+04	1.78E−03	117 nM	–	–
B9	–	–	1.65E+04	3.44E−03	209 nM	–	–
B10	–	–	3.32E+04	3.63E−03	109 nM	0.63 ng/mL	–
B11	–	–	6.42E+03	2.24E−03	349 nM	1.55 ng/mL	–
B12	–	–	4.63E+04	2.50E−03	53.9 nM	0.67 ng/mL	–
B13	–	–	1.36E+04	1.94E−03	142 nM	–	–
B14	–	–	5.13E+04	2.13E−03	41.5 nM	1.01 ng/mL	–
B15	–	–	4.42E+04	1.59E−03	36 nM	–	–
B16	–	–	5.03E+04	3.95E−03	78.5 nM	0.6 ng/mL	–
B17	–	–	2.05E+04	6.37E−04	31.1 nM	–	–
B18	–	–	1.72E+05	8.45E−03	49.3 nM	76.1 ng/mL	markedly decreased proliferative activity
B19	–	–	2.43E+04	2.37E−03	97.8 nM	4.85 ng/mL	slightly decreased proliferative activity
B20	–	–	1.79E+04	3.08E−03	172 nM	11.3 ng/mL	–
